In patent US20240400708A1:
Changes are numbered by the printed parent chain. In names and notes the source's numbering stands.

B1: feline IgG1a A378K (antibody, part only; not given: Variable domains, not shown: another chain or arm of the molecule)
constant: ASTTAPSVFPLAPSCGTTSGATVALACLVLGYFPEPVTVSWNSGALTSGVHTFPAVLQASGLYSLSSMVTVPSSRWLSDTFTCNVAHPPSNTKVDKTVRKTDHPPGPKPCDCPKCPPPEMLGGPSIFIFPPKPKDTLSISRTPEVTCLVVDLGPDDSDVQITWFVDNTQVYTAKTSPREEQFNSTYRVVSVLPILHQDWLKGKEFKCKVNSKSLPSPIERTISKAKGQPHEPQVYVLPPAQEELSRNKVSVTCLIKSFHPPDIKVEWEITGQPEPENNYRTTPPQLDSDGTYFVYSKLSVDRSHWQRGNTYTCSVSHEALHSHHTQKSLTQSPGK
B2: feline IgG1a A378I (antibody, part only; not given: Variable domains, not shown: another chain or arm of the molecule)
constant: B1 constant with K264I
B3: feline IgG1a T437A (antibody, part only; not given: Variable domains, not shown: another chain or arm of the molecule)
constant: B1 constant with K264A, T325A
B4: feline IgG1a H436R (antibody, part only; not given: Variable domains, not shown: another chain or arm of the molecule)
constant: B1 constant with K264A, H324R
B5: feline IgG1a A378L (antibody, part only; not given: Variable domains, not shown: another chain or arm of the molecule)
constant: B1 constant with K264L
B6: feline IgG1a P247L (antibody, part only; not given: Variable domains, not shown: another chain or arm of the molecule)
constant: B1 constant with P133L, K264A
B7: feline IgG1a A431V (antibody, part only; not given: Variable domains, not shown: another chain or arm of the molecule)
constant: B1 constant with K264A, A319V
B8: feline IgG1a S434E (antibody, part only; not given: Variable domains, not shown: another chain or arm of the molecule)
constant: B1 constant with K264A, S322E
B9: feline IgG1a P247I (antibody, part only; not given: Variable domains, not shown: another chain or arm of the molecule)
constant: B1 constant with P133I, K264A
B10: feline IgG1a A378E (antibody, part only; not given: Variable domains, not shown: another chain or arm of the molecule)
constant: B1 constant with K264E
B11: feline IgG1a H436K (antibody, part only; not given: Variable domains, not shown: another chain or arm of the molecule)
constant: B1 constant with K264A, H324K
B12: feline IgG1a Q311L (antibody, part only; not given: Variable domains, not shown: another chain or arm of the molecule)
constant: B1 constant with Q197L, K264A
B13: feline IgG1a A378F (antibody, part only; not given: Variable domains, not shown: another chain or arm of the molecule)
constant: B1 constant with K264F
B14: feline IgG1a A378H (antibody, part only; not given: Variable domains, not shown: another chain or arm of the molecule)
constant: B1 constant with K264H
B15: feline IgG1a D249S (antibody, part only; not given: Variable domains, not shown: another chain or arm of the molecule)
constant: B1 constant with D135S, K264A
B16: feline IgG1a A378C (antibody, part only; not given: Variable domains, not shown: another chain or arm of the molecule)
constant: B1 constant with K264C
B17: feline IgG1a D249E (antibody, part only; not given: Variable domains, not shown: another chain or arm of the molecule)
constant: B1 constant with D135E, K264A
B18: feline IgG1a D249A (antibody, part only; not given: Variable domains, not shown: another chain or arm of the molecule)
constant: B1 constant with D135A, K264A
B19: feline IgG1a T250E (antibody, part only; not given: Variable domains, not shown: another chain or arm of the molecule)
constant: B1 constant with T136E, K264A
B20: feline IgG1a T437R (antibody, part only; not given: variable domains and light chain, not shown: another chain or arm of the molecule)
constant: B1 constant with K264A, T325R
B21: feline IgG1a E430I (antibody, part only; not given: Variable domains, not shown: another chain or arm of the molecule)
constant: B1 constant with K264A, E318I
B22: feline IgG1a P247V (antibody, part only; not given: Variable domains, not shown: another chain or arm of the molecule)
constant: B1 constant with P133V, K264A
B23: feline IgG1a A431R (antibody, part only; not given: Variable domains, not shown: another chain or arm of the molecule)
constant: B1 constant with K264A, A319R
B24: feline IgG1a T250I (antibody, part only; not given: Variable domains, not shown: another chain or arm of the molecule)
constant: B1 constant with T136I, K264A
B25: feline IgG1a A378D (antibody, part only; not given: Variable domains, not shown: another chain or arm of the molecule)
constant: B1 constant with K264D
B26: feline IgG1a T250S (antibody, part only; not given: Variable domains, not shown: another chain or arm of the molecule)
constant: B1 constant with T136S, K264A
B27: feline IgG1a S434D (antibody, part only; not given: Variable domains, not shown: another chain or arm of the molecule)
constant: B1 constant with K264A, S322D
B28: feline IgG1a A378N (antibody, part only; not given: variable domains and light chain, not shown: another chain or arm of the molecule)
constant: B1 constant with K264N
B29: feline IgG1a Y285A (antibody, part only; not given: Variable domains, not shown: another chain or arm of the molecule)
constant: B1 constant with Y171A, K264A
B30: feline IgG1a H436M (antibody, part only; not given: Variable domains, not shown: another chain or arm of the molecule)
constant: B1 constant with K264A, H324M
B31: feline IgG1a A378G (antibody, part only; not given: Variable domains, not shown: another chain or arm of the molecule)
constant: B1 constant with K264G
B32: feline IgG1a H436G (antibody, part only; not given: Variable domains, not shown: another chain or arm of the molecule)
constant: B1 constant with K264A, H324G
B33: feline IgG1a L432S (antibody, part only; not given: Variable domains, not shown: another chain or arm of the molecule)
constant: B1 constant with K264A, L320S
B34: feline IgG1a A378P (antibody, part only; not given: Variable domains, not shown: another chain or arm of the molecule)
constant: B1 constant with K264P
B35: feline IgG1a T250Q (antibody, part only; not given: Variable domains, not shown: another chain or arm of the molecule)
constant: B1 constant with T136Q, K264A
B36: feline IgG1a A378M (antibody, part only; not given: Variable domains, not shown: another chain or arm of the molecule)
constant: B1 constant with K264M
B37: feline IgG1a T250V (antibody, part only; not given: Variable domains, not shown: another chain or arm of the molecule)
constant: B1 constant with T136V, K264A
B38: feline IgG1a A431Q (antibody, part only; not given: Variable domains, not shown: another chain or arm of the molecule)
constant: B1 constant with K264A, A319Q
B39: feline IgG1a E430Q (antibody, part only; not given: Variable domains, not shown: another chain or arm of the molecule)
constant: B1 constant with K264A, E318Q
B40: feline IgG1a mutant ID No. 253: S428M, S434L (antibody, part only; not given: Variable domains, not shown: another chain or arm of the molecule)
constant: B1 constant with K264A, S316M, S322L
B41: feline IgG1a mutant ID No. 309: P247V, T250Q (antibody, part only; not given: Variable domains, not shown: another chain or arm of the molecule; small tags and cut ends)
constant: B1 constant with P133V, T136Q, K264A
B42: feline IgG1a mutant ID No. 284: S252Y, Q311W, D312P, S434Y (antibody, part only; not given: Variable domains, not shown: another chain or arm of the molecule)
constant: B1 constant with S138Y, Q197W, D198P, K264A, S322Y
B43: feline IgG1a mutant ID No. 312: Q311K, D312P, L314K (antibody, part only; not given: Variable domains, not shown: another chain or arm of the molecule)
constant: B1 constant with Q197K, D198P, L200K, K264A
B44: feline IgG1a mutant ID No. 286: S252Y, S428Y, D312P, L314K (antibody, part only; not given: Variable domains, not shown: another chain or arm of the molecule)
constant: B1 constant with S138Y, D198P, L200K, K264A, S316Y
B45: feline IgG1a mutant ID No. 314: Q311R, D312P, L314K (antibody, part only; not given: Variable domains, not shown: another chain or arm of the molecule)
constant: B1 constant with Q197R, D198P, L200K, K264A
B46: feline IgG1a mutant ID No. 306: D399M, T403R (antibody, part only; not given: Variable domains, not shown: another chain or arm of the molecule; small tags and cut ends)
constant: B1 constant with K264A, D287M, T291R
B47: feline IgG1a mutant ID No. 255: S428M, S434P (antibody, part only; not given: Variable domains, not shown: another chain or arm of the molecule)
constant: B1 constant with K264A, S316M, S322P
B48: feline IgG1a mutant ID No. 298: S428Y, Q311W, D312P, L314K (antibody, part only; not given: Variable domains, not shown: another chain or arm of the molecule)
constant: B1 constant with Q197W, D198P, L200K, K264A, S316Y
B49: feline IgG1a mutant ID No. 307: D401R, T403R (antibody, part only; not given: Variable domains, not shown: another chain or arm of the molecule; small tags and cut ends)
constant: B1 constant with K264A, D289R, T291R
B50: feline IgG1a mutant ID No. 264: D312P, L314K, S434Y (antibody, part only; not given: Variable domains, not shown: another chain or arm of the molecule)
constant: B1 constant with D198P, L200K, K264A, S322Y
B51: feline IgG1a mutant ID No. 313: Q311M, D312P, L314K (antibody, part only; not given: Variable domains, not shown: another chain or arm of the molecule)
constant: B1 constant with Q197M, D198P, L200K, K264A
B52: feline IgG1a mutant ID No. 275: S252R, S434R (antibody, part only; not given: Variable domains, not shown: another chain or arm of the molecule)
constant: B1 constant with S138R, K264A, S322R
B53: feline IgG1a mutant ID No. 302: A431K, S434P (antibody, part only; not given: Variable domains, not shown: another chain or arm of the molecule)
constant: B1 constant with K264A, A319K, S322P
B54: feline IgG1a mutant ID No. 265: Q311W, D312P, L314K, S434Y (antibody, part only; not given: Variable domains, not shown: another chain or arm of the molecule)
constant: B1 constant with Q197W, D198P, L200K, K264A, S322Y
B55: feline IgG1a mutant ID No. 304: D399M, D401R (antibody, part only; not given: variable domains and light chain, not shown: another chain or arm of the molecule; small tags and cut ends)
constant: B1 constant with K264A, D287M, D289R
B56: feline IgG1a mutant ID No. 311: Q311H, D312P, L314K (antibody, part only; not given: Variable domains, not shown: another chain or arm of the molecule; small tags and cut ends)
constant: B1 constant with Q197H, D198P, L200K, K264A

Target: feline FcRn complex (FcRn-α subunit and β-microglobulin), biotin labeled (feline)
Test: SPR, pH 6

| Kd | Molecule |
| --- | --- |
| 104 nM | B1 |
| 58.3 nM | B2 |
| 8.79 nM | B3 |
| 5.69 nM | B4 |
| 34.7 nM | B5 |
| 4.72 nM | B6 |
| 7.08 nM | B7 |
| 3.35 nM | B8 |
| 4.51 nM | B9 |
| 63.6 nM | B10 |
| 6.91 nM | B11 |
| 6.38 nM | B12 |
| 74.8 nM | B13 |
| 49.3 nM | B14 |
| 5.24 nM | B15 |
| 77.3 nM | B16 |
| 5.84 nM | B17 |
| 5.41 nM | B18 |
| 6.07 nM | B19 |
| 6.85 nM | B20 |

| Kd | Molecule |
| --- | --- |
| 5.89 nM | B21 |
| 5.21 nM | B22 |
| 6.73 nM | B23 |
| 4.66 nM | B24 |
| 100 nM | B25 |
| 4.94 nM | B26 |
| 5.66 nM | B27 |
| 28.6 nM | B28 |
| 8.01 nM | B29 |
| 8.25 nM | B30 |
| 88.3 nM | B31 |
| 10.9 nM | B32 |
| 6.58 nM | B33 |
| 68.4 nM | B34 |
| 4.35 nM | B35 |
| 26.6 nM | B36 |
| 6.87 nM | B37 |
| 6.64 nM | B38 |
| 6.58 nM | B39 |

Target: feline FcRn complex (FcRn-α subunit and β-microglobulin) (feline)
Test: SPR (Biacore), FcRn on SA chip, pH 6

| Kd | Molecule |
| --- | --- |
| 14 nM | feline IgG1a mutant ID No. 263: S252Y, S254T, T256E (antibody) |
| 24.5 nM | feline IgG1a mutant ID No. 259: S428L (antibody) |
| 25.4 nM | feline IgG1a mutant ID No. 262: S428L (antibody) |
| 8 nM | B40 |
| 9.6 nM | B41 |
| 7.27 nM | B42 |
| 6.07 nM | B43 |
| 27 nM | B44 |
| 2130 nM | B45 |
| 12.8 nM | B46 |
| 7.53 nM | B47 |
| 25.3 nM | B48 |
| 15.9 nM | B49 |
| 71.7 nM | B50 |
| 18.9 nM | B51 |
| 78.6 nM | B52 |
| 2.17 nM | B53 |
| 7.95 nM | B54 |
| 5.43 nM | B55 |
| 1.44 nM | B56 |
